For the data set, the target named is NT-proBNP (UniProt P16860). Briefly: AuNP aggregation (LSPR, A750/A521), Hill fit; diluted urine; Hill n = 0.0751; NT-proBNP in 5 mM PBS pH 7.4; aptamer in 10 mM Tris-HCl, 0.2 mM EDTA (0.25 uM in assay); 15 min incubation; then citrate AuNPs and 40 uL 0.2 M NaCl; 25 C stated for CD sample only. The conditions noted are these: protein: commercial; antiparallel G4 proposed from CD.

By Kd is commonly meant the equilibrium constant for the complex coming apart. Read a low Kd as higher affinity.

Sequence of NT-proBNP (P16860 27-134): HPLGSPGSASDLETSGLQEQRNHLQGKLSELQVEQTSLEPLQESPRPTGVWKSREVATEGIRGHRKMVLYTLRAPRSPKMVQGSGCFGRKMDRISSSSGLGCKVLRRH

B1: NT-proBNP aptamer (structured_DNA)
DNA: GGCAGGAAGACAAACAGGTCGTAGTGAAACTGTCCACCGTAGACCGGTTATCTGTTGGTCTGTGGTGCTGT
On to B1, for which the Kd is 2.71 nM.
